Data taken from the supplement of paper PMC12042874.
± gives the uncertainty stated by the source.

Experiment: amyloid nucleation score (Sup35N fusion, yeast selection) (log enrichment); library NNK3; higher = more nucleation; inactive = no reads after selection
Outline: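 DiMSum was used to calculate nucleation scores as log enrichment of output over input reads, centred on the mode score of non-aggregating sequences. Sequences with fewer than 100 input reads were not scored. Input and output came from Illumina sequencing of plasmid inserts in psi-negative yeast expressing peptides of 20 random codons fused to Sup35N, induced 24 hours with 100 μM copper sulfate and then grown 7 days at 30°C on medium lacking adenine and uracil.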

Substance | amyloid nucleation score
PTAESPLMPFNA | -0.478 ± 0.69
PTAFWGFGF | inactive
PTHILPYLVD | inactive
PTNFD | inactive
PVAMAYAVSSVVDMASN | inactive
PVFFM | inactive
PVGHSSMSLYRGR | inactive
PVGKMDLRIDKNSWSYLVLD | inactive
PVGVLYTSANGTDFVNIVRD | inactive
PVHSFNLAIYMRLFHVWPVF | inactive
PVISMHIVVLCGKQKKTMSP | 0.594 ± 0.23
PVKLC | inactive
PVLEYKVL | inactive
PVLPQGLRVLYDSVSVTSHL | inactive
PVMSS | inactive
PVNIVCTVNSLSGSYED | inactive
PVNNIYGRLPGLLKLEKVSS | inactive
PVSAH | 1.08 ± 0.17
PVVHFLWSLYRNLVCVDGKV | inactive
PWCVKIHRWVLYWSYKLSIS | inactive
PWFTMVRIGEMVLYLRMQRR | inactive
PWGEILINGR | inactive
PYQDIMNSQESGGDE | inactive
PYVECSWEAQG | inactive

Substance | amyloid nucleation score
QAIGIRICSK | inactive
QASIVSTG | -0.926 ± 2.4
QDIELMFSFFDGKAFSSYHL | -0.787 ± 0.98
QDTLVPYMFKQITVYVYGLA | inactive
QDVAFAAEYELTKCSVLFSN | inactive
QDYGYFNTYQFVRKWSSISL | inactive
QEAGFMYGCYFVILQNHAGF | 1.3 ± 0.092
QELLPIRYLVE | inactive
QFIEMSSQYFSMRYVDRVAD | inactive
QFNMKVFMHDWWRLLLPKSK | inactive
QGSRLNGIKSPLCIGLKCSR | inactive
QGWPRKITVILFWILQSGSR | inactive
QHMSRYYVFLLNCIQCIMNG | 1.58 ± 0.12
QHNLRDGMFLNGTYRNDAVR | inactive
QHTAFLRKVSPSLRG | inactive
QIHNRTMPCWRSKATVLGKT | inactive
QIKKAINHHKYFW | inactive
QILYFVDTEVSYMEASWRDS | inactive
QKHISY | inactive
QKIIVSR | inactive
QLCPHYFCKNKNATYGLTSR | inactive
QLFTVTLQLTLLSKIDTANL | 1.03 ± 0.13
QLHVMNVYFFWKDSSALMRA | inactive
QLMDLTGFRRSSVYVLVCDF | inactive

Substance | amyloid nucleation score
QLSSYFRGLLFQCHSPQHGY | inactive
QLTLACSRLQAGLSSQRHLS | inactive
QLVLPSFMVTLSCG | inactive
QMQTATRHFNLG | inactive
QNMFSSANRLMSTC | inactive
QNRLQTSFMVGQRGNTLVTN | inactive
QNSGFWIRMH | -1.38 ± 2.4
QNVKIRRGICEEFYRRVQLD | inactive
QPCDHWHEDLNVCVVVIYAG | inactive
QPCPYKLCQFFRKDA | inactive
QPMKLRT | inactive
QQEKLCLKHTSQVDI | inactive
QQEMCTLFFRN | inactive
QQSTIIFFVWAWMELNPTWK | inactive
QQYYVAWFCDYDLFNCMNLM | 1.99 ± 0.095
QRIHGLF | inactive
QRNSCLDFMK | inactive
QRYSLHDINEDYRYDWVNGL | inactive
QSDRVPRILLGKRFKSPLSF | inactive
QSLSVEH | inactive
QSNCCWVV | inactive
QSRSRSNARARWVVSKLSCS | 0.21 ± 0.53
QSWLMPFCLVSSTWKV | inactive
QTDMWIDTWKVQPVWIEDEG | inactive

Substance | amyloid nucleation score
QTMDTYLWLAR | -0.083 ± 1.1
QTMLIM | inactive
QVFHFGCSEDARCVCRVHM | inactive
QVFLRMKRRICVPLFYLACN | 0.422 ± 0.21
QVGSLFWLRY | inactive
QVSLSRRISFYGHLNSDNES | inactive
QWFVRNFLFNPNALRYFRSS | inactive
QYICTLTCSYFLGSMTIEHK | -0.022 ± 0.66
QYRDSYANSSQNPFHCFFNL | inactive
QYSHPQRIIFSF | -0.249 ± 0.43
RAALLGVSADFTKHTTRVWE | inactive
RAGATTFGVMVYKYDKFRQD | inactive
RARLMITYYLTDQASDNRYV | 0.799 ± 0.28
RCFYKRYNYLS | inactive
RCIMRYCAKALCKVICSQWL | inactive
RCIVSRLTWGTILISFLQNR | inactive
RCIYTMVWVTNVNMVRRTGA | 1.69 ± 0.084
RCQATWWNIIFFAIGDCDLL | inactive
RCRDGTILALC | inactive
RCREFERKLALSLQSVGS | inactive
RCSDYHMR | inactive
RCWILISANHQKDFVSHIFY | 0.627 ± 0.36
RCYCCPRTDSLGMG | inactive
RDCTMYNTYFIWNIYPG | 3.42 ± 0.07

Substance | amyloid nucleation score
RDFNMDTVRAVWISQILNSI | inactive
RDGTYRWSDLKTICLIRVSW | inactive
RDRCISFEYAVQTCHYECRP | -0.294 ± 0.74
RDRSVKRVVHSGFRFSIGEA | inactive
RDSVNFTSNCCSVGFNTFNS | 2.67 ± 0.053
RDTYQSSCDWQW | 0.077 ± 0.87
RDYAFNPMFCCATNAKFMKG | 1.96 ± 0.06
REAASQIHSEDKMGGWYHRL | inactive
REAYDLFSCIDYVLNFMFNY | inactive
RECWMKPNLNSNTYSEMICE | 0.011 ± 0.81
REDWRLFNCTTFSAPSSC | -0.217 ± 0.66
REKDSAAHVVE | inactive
RELTRRTYAVANYRLSMSRL | inactive
RELYFSYDSLDYLGMRVWML | inactive
RERIFRICVFRMTSDKMTAT | inactive
RERPRD | inactive
RFCAFERG | inactive
RFHVLINCFSAAGRGNPGSR | 1.69 ± 0.068
RFLLLRSCMSIDWRVGLEIF | inactive
RFLYRYG | inactive
RFMFSLFMNEGNMLHMLRRV | inactive
RFMQWGIFS | inactive
RFNAFSPSPRWPRHFKTMYY | inactive
